Measurements as given in paper PMC3114845, “Bordetella pertussis Autotransporter Vag8 Binds Human C1 Esterase Inhibitor and Confers Serum Resistance” (PLoS ONE, 2011).

Molecular target: T1, histidine-tagged Vag8 passenger domain (residues Val40 to Leu610) (Bordetella pertussis, UniProt Q79GN7 40-610)
T1 construct: autotransporter Vag8, Bordetella pertussis BP338 (Tohama I derivative), predicted passenger domain, residues Val40 to Leu610; Cloned with BamHI and HindIII into pET30b; also called purified Vag8 passenger; recombinant Vag8
T1 sequence: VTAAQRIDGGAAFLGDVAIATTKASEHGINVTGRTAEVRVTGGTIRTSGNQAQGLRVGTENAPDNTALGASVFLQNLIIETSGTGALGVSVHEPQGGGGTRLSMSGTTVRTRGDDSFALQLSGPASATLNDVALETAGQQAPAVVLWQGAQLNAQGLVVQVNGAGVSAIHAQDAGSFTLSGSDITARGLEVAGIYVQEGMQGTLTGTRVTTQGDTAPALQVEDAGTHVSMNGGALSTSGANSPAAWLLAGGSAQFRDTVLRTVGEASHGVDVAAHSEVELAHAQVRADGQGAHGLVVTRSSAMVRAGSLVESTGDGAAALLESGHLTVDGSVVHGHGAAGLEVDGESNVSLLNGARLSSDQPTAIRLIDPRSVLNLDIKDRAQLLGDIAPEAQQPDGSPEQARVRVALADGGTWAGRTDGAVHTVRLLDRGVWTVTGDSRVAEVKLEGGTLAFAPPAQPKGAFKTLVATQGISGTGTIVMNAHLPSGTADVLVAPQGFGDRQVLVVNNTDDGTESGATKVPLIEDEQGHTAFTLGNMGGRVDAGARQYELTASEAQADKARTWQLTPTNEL
Test: ELISA; MaxiSorp plates coated with two-fold dilutions of purified passenger domain (top 5 µg/ml, PBS pH 7.4, overnight 4°C); probed 1 h at room temperature with 10 µg/ml purified human C1inh; detected with goat anti-C1inh
Details: both partners purified

B1: purified human C1 esterase inhibitor (natural protein)
chain: NPNATSSSSQDPESLQDRGEGKVATTVISKMLFVEPILEVSSLPTTNSTTNSATKITANTTDEPTTQPTTEPTTQPTIQPTQPTTQLPTDSPTQPTTGSFCPGPVTLCSDLESHSTEAVLGDALVDFSLKLYHAFSAMKKVETNMAFSPFSIASLLTQVLLGAGENTKTNLESILSYPKDFTCVHQALKGFTTKGVTSVSQIFHSPDLAIRDTFVNASRTLYSSSPRVLSNNSDANLELINTWVAKNTNNKISRLLDSLPSDTRLVLLNAIYLSAKWKTTFDPKKTRMEPFHFKNSVIKVPMMNSKKYPVAHFIDQTLKAKVGQLQLSHNLSLVILVPQNLKHRLEDMEQALSPSVFKAIMEKLEMSKFQPTLLTLPRIKVTTSQDMLSIMEKLEFFDFSYDLNLCGLTEDPDLQVSAMQHQTVLELTETGVEAAAASAISVARTLLVFEVQQPFLFVLWDQQHKFPVFMGRVYDPRA
notes: also called C1inh; purified C1inh; source: bought: Advanced Research Technologies (purified human C1inh)
B1: binds.
